Reference: patent publication US20110086806A1 (published 2011)
Positions count from the first letter of the chain named. Values belong to the binder of their own block, whether it stands above or below them.

Biological target: T1, recombinant human IL-23R/Fc chimera (R&D Systems) (human, UniProt Q5VWK5 24-355)
T1 construct: Bought; also called rhIL23RFc
T1 sequence (looked up): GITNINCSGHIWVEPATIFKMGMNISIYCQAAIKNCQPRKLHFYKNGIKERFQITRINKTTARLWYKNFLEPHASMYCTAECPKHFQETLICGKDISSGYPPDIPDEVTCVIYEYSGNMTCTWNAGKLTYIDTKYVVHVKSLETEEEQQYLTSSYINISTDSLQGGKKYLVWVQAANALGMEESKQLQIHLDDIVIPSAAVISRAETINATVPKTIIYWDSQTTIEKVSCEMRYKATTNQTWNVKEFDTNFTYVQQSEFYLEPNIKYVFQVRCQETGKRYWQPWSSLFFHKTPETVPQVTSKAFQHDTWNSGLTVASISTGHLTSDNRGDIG
Experiment: competition ELISA vs IL-23
Experimental: Assays were performed generally as follows. Individual wells in Immulon HB2 plates were incubated overnight at 4° C. with 100 μL PBS containing 100 ng of an anti-human IgG Fc (R&D MAB 110 clone 97924). Plates were washed five times with PBS/0.05% Tween 20, and wells were incubated for 1.5 h at RT with 100 μL each of PBS containing 50 ng of recombinant human IL-23R/Fc. […] Competitor was included at a final concentration of 1 μg/mL. After incubation, plates were washed as described and wells were incubated for 40 min at RT with 100 μL each of PBS containing a 1:5000 dilution of streptavidin-HRP conjugate (Pierce catalog no. 21130). After washing, wells were incubated with 100 μL each of TMB (BioFX Lab catalog no. TMBH-1000-0) for up to 30 min at RT. Reactions were stopped with an equal volume of 0.2 M sulfuric acid.

B1: 105-08-2C1 ATRIMER complex (designed binder, not shown: small tags and cut ends)
chain: EPPTQKPKKIVNAKKDVVNTKMFEELKSRLDTLAQEVALLKEQQALQTVCLKGTKVHMKCFLAFTQTKTFHEASEDCISRGGTLSTPQTGSENDALYEYLRQSVGNEAEIWLGLNGSSLTDTWVDMTGARIAYKNWETEITAQPDGGWGYFGENCAVLSGAANGKWFDKRCRDQLPYICQFGIV
- Ratio IC50 to 056-53.H4E IC50: 3.6

B5: 105-08-2G1 ATRIMER complex (designed binder)
chain: B1 chain with S118P, L119K, D121H, W148F
- Ratio IC50 to 056-53.H4E IC50: 2.2

B6: 105-08-2C8 ATRIMER complex (designed binder)
chain: B1 chain with S118W
- Ratio IC50 to 056-53.H4E IC50: 8.4

B10: 105-08-2C12 ATRIMER complex (designed binder, not shown: small tags and cut ends)
chain: B1 chain with S118Q, L119R, W148F
- Ratio IC50 to 056-53.H4E IC50: 3.3

B11: 105-08-2C11 ATRIMER complex (designed binder)
chain: B1 chain with S118L, L119K, D121Q
- Ratio IC50 to 056-53.H4E IC50: 9.1

B13: 105-08-2C4 ATRIMER complex (designed binder)
chain: B1 chain with S118L, D121N, W148F
modifications: ATRIMER complex: homotrimer of three copies of this chain, joined by the tetranectin coiled coil
notes: not shown: C-terminal tag: Myc/His (pANA4) or HA-StrepII (pANA10)
- Ratio IC50 to 056-53.H4E IC50: 2.9

B16: 105-08-2C9 ATRIMER complex (designed binder)
chain: B1 chain with S118T, D121N
- Ratio IC50 to 056-53.H4E IC50: 5.3

B17: 105-08-2D2 ATRIMER complex (designed binder)
chain: B1 chain with S118A, L119R, D121G, W148F
- Ratio IC50 to 056-53.H4E IC50: 4.1

B18: 105-08-2E12 ATRIMER complex (designed binder)
chain: B1 chain with S118G
- Ratio IC50 to 056-53.H4E IC50: 9.1

B22: 105-08-2C6 ATRIMER complex (designed binder)
chain: B1 chain with S118Q, L119R
- Ratio IC50 to 056-53.H4E IC50: 3.6

Further lines, results first:

- Ratio IC50 to 056-53.H4E IC50: 3
B2: 105-20-1B4 ATRIMER complex (designed binder)
chain: B1 chain with L119R, D121N
modifications: ATRIMER complex: homotrimer of three copies of this chain, joined by the tetranectin coiled coil
notes: as for B13

- Ratio IC50 to 056-53.H4E IC50: 2
B3: 105-08-2H6 ATRIMER complex (designed binder)
chain: B1 chain with S118P, L119V, D121G, W148F

- Ratio IC50 to 056-53.H4E IC50: 4.3
B4: 105-08-2H11 ATRIMER complex (designed binder)
chain: B1 chain with S118P, L119R
notes: not shown: C-terminal tag: His/Myc (pANA4) or HA-StrepII (pANA10)

- Ratio IC50 to 056-53.H4E IC50: 2.9
B7: 105-08-2H3 ATRIMER complex (designed binder)
chain: B1 chain with D121N
modifications: ATRIMER complex: homotrimer of three copies of this chain, joined by the tetranectin coiled coil
notes: as for B13

- Ratio IC50 to 056-53.H4E IC50: 3.3
B8: 105-08-2H12 ATRIMER complex (designed binder, not shown: small tags and cut ends)
chain: B1 chain with S118P, L119R, D121E, W148F

- Ratio IC50 to 056-53.H4E IC50: 4
B9: 105-08-2H2 ATRIMER complex (designed binder)
chain: B1 chain with S118P, L119T

- Ratio IC50 to 056-53.H4E IC50: 6.6
B12: 105-20-1A6 ATRIMER complex (designed binder)
chain: B1 chain with S118A, L119K, D121G

- Ratio IC50 to 056-53.H4E IC50: 5.2
B14: 105-08-2G6 ATRIMER complex (designed binder)
chain: B1 chain with S118L

- Ratio IC50 to 056-53.H4E IC50: 2.5
B15: 105-08-2G4 ATRIMER complex (designed binder)
chain: B1 chain with S118P, L119R, D121G, W148F

- Ratio IC50 to 056-53.H4E IC50: 3.8
B19: 105-08-2G2 ATRIMER complex (designed binder)
chain: B1 chain with S118A, L119I

- Ratio IC50 to 056-53.H4E IC50: 6.5
B20: 105-08-2H10 ATRIMER complex (designed binder)
chain: B1 chain with S118N, L119H, W148F

- Ratio IC50 to 056-53.H4E IC50: 5
B21: 105-08-2H4 ATRIMER complex (designed binder)
chain: B1 chain with S118V, L119R, W148F
